These results are taken from US20250296971A1, “GASTRIC INHIBITORY PEPTIDE RECEPTOR LIGANDS” (priority 2021, published 2025).

The target in assay [1] is T1, GIPR (CHO-K1-hGIPR cells) (Homo sapiens, UniProt P48546).
T1 construct: host or cells: CHO-K1
T1 sequence (P48546 22-466): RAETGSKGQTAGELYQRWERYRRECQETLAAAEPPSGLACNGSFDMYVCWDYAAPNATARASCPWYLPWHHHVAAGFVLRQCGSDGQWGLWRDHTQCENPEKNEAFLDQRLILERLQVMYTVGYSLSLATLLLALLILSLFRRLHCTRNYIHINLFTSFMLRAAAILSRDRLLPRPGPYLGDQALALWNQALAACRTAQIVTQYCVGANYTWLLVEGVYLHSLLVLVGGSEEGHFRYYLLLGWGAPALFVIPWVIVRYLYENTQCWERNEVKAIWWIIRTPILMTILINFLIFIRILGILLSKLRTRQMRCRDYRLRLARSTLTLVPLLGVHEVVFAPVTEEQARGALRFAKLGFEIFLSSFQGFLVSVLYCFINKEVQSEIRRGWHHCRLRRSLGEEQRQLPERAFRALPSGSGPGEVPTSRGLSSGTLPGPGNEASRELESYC
The assay can be described thus: FACS binding assay. The following applies: competition with 20 nM GIP-057, 4° C., 1 hour, read-out: pIC50 Category (converted). The gist of the method: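 Median fluorescence in the APC channel, measured on washed CHO-K1 cells overexpressing human GIPR, was fitted by four-parameter logistic regression against peptide concentration to yield EC50 or IC50 values. Secondary labelling used APC-streptavidin (1 μg/mL, 30 min, ice).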
Background: Flow cytometry measures light scatter and fluorescence of single cells or particles in a stream.

Assay [2] addresses T2, human GIP receptor (bioGIPR) (Homo sapiens, UniProt P48546).
T2 construct: Biotinylate extracellular of the human GIP receptor (bioGIPR, Proteros biostructures GmbH, lot #02/2b); purchased Proteros biostructures GmbH lot #02/2b
T2 sequence (P48546 22-138 limits assumed): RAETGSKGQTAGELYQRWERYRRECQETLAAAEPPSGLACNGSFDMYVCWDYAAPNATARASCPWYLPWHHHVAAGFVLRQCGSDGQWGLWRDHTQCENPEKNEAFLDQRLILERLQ
The experiment in a line: Surface plasmon resonance (SPR) based binding assay. The following applies: Single Cycle Kinetic mode, 25° C.; for t1/2 Category: SPR dissociation half-life; for Kd: SPR, 1:1 Langmuir binding model, read-out: pKD Category (converted). As to the method:
Surface plasmon resonance (SPR) studies were performed using a Biacore™ T200 SPR system. Briefly, polarized light is directed towards a gold-labeled sensor surface, and minimum intensity reflected light is detected. The angle of reflected light changes as molecules bind and dissociate.
Biotinylate extracellular of the human GIP receptor (bioGIPR, Proteros biostructures GmbH, lot #02/2b) was captured on a biotin capture chip (Biotin CAPture Kit, Series S, GE Healthcare, Cat #28-9202-34). bioGIPR was diluted in Running Buffer (HBST from Xantec Analytics; […], 0.05% Tween20, 0.1% DMSO) to a final concentration 100 nM and than flushed over the Fc-capture chip to immobilized ˜3500 RUs.
Stock solutions of test compounds were prepared by dissolving each compound in DMSO. DMSO stock solution were diluted 1:1000 in Running Buffer without DMSO. Further sequential dilutions were made with Running Buffer containing 0.1% DMSO. SPR binding analyses were performed in Single Cycle Kinetic (SCK) mode at 25° C. Flow cell without immobilized bioGIPR served as reference flowcell. After each SCK run, bioGIRP and the Biotin Capture Reagent was removed with Regeneration Solution (6 M Guanidium, 0.75 M NaOH).
In between every three SCK measurements, a blank run with Running Buffer instead of test compound was included to correct for baseline drifts (double blanking method).
For each test compound, SPR raw data in the form of resonance units (RU) were plotted as sensorgrams using the Biacore™ T200 control software. The signal from the blank sensorgram was subtracted from that of the test compound sensorgram (blank corrected). The blank corrected sensorgram was corrected for baseline drift by subtracting the sensorgram of a SCK run without the test compound (running buffer only). The association rate (kon), dissociation rate (koff), dissociation constant (KD), and t1/2 were calculated from blank corrected SPR data using the 1:1 Langmuir binding model from the Biacore™ T200 evaluation software. Raw data and fit results were imported as text files in IDBS. The pKD value (negative decadic logarithm of dissociation constant) was calculated in the IDBS excel template.
(SPR reads the build-up and loss of mass on a sensor chip optically.)

The target in assay [3] is human Gastric Inhibitory Peptide Receptor (human) (UniProt P48546). The assay can be described thus: FACS competition with GIP-057 on CHO-K1-hGIPR cells; pIC50 category A: >8.0.

*1 amine or outer side, *2 acyl side, *3 side chain or, on linkers, in order; H or OH if unused. Where a SMILES comes first, the peptide text is derived from it. Bridges are numbered along the chain shown (N, C = ends). Primed or numbered codes have the meaning given here. Where no end group is shown, it is not given here. Side-chain parts run from the residue outwards. [ ]: non-standard residue; d: D form. The star is where a group is joined. Ttds = 1,13-diamino-4,7,10-trioxatridecan-succinamic acid, NCCCOCCOCCOCCCNC(=O)CCC(=O)*; NH(1-deoxy-D-glucityl) = OC[C@@H](O)[C@@H](O)[C@H](O)[C@@H](O)CN*; APAc″ = 4-amino-1-carboxymethylpiperidine, NC1CCN(CC(=O)*)CC1; Pro(trans-4-NH2) = O=C([C@@H]1C[C@@H](N[*:3])CN1[*:1])[*:2]; DOTA = O=C(O)CN1CCN(CC(=O)O)CCN(CC(=O)*)CCN(CC(=O)O)CC1; Trp(5-Cl) = N[C@@H](Cc1c[nH]c2ccc(Cl)cc12)C(=O)O; Pyridine(2,6-diCH2) = c1cc(C[*:1])nc(C[*:2])c1; AETO = 2-aminoethane-1-thiol oxidized; mXylylene = c1cc(C[*:1])cc(C[*:2])c1; Glutaryl = O=C(CCCC(=O)[*:2])[*:1]; Hyp = O=C(O)[C@@H]1C[C@@H](O)CN1; X1 = O=C(CN1CCC(N[*:1])CC1)[*:2]; Cysteamide = C(CS[*:3])N[*:1]; hLeu = CC(C)CC[C@H](N)C(=O)O; 2Lut(3) = 2,6-lutidylidene; 3Lut = 3,5-lutidylidene; Api = NC1(C(=O)O)CCNCC1; Thp = NC1(C(=O)O)CCOCC1; Dap = NC[C@H](N)C(=O)O; Aib = CC(C)(N)C(=O)O

For `CC[C@H](C)[C@@H]1NC(=O)[C@H](CC(C)C)NC(=O)C2(CCOCC2)NC(=O)[C@@H](NC(=O)[C@@H](CC(C)C)NC(=O)[C@H](CCC(=O)O)NC(=O)[C@@H]2C[C@@H](O)CN2C(=O)[C@H](Cc2c[nH]c3ccc(Cl)cc23)NC(=O)[C@H](Cc2c[nH]c3ccccc23)NC(=O)[C@H](CC(=O)O)NC(=O)CCCC(=O)NC[C@H](O)[C@@H](O)[C@H](O)[C@H](O)CO)CSCc2cccc(n2)CSC[C@@H](C(=O)NC2CCN(CC(=O)N[C@H](CCC(=O)NC[C@H](O)[C@@H](O)[C@H](O)[C@H](O)CO)C(=O)N[C@@H](CCCCNC(=O)CN3CCN(CC(=O)O)CCN(CC(=O)O)CCN(CC(=O)O)CC3)C(N)=O)CC2)NC1=O` [GIP-004, AGLU-Glutar-Asp-Trp-5Clw-Hyp-Glu-leu-[Cys(2Lut)-Thp-Leu-Ile-Cys]-APAc-glu(AGLU)-Lys(DOTA)-NH2] ({NH(1-deoxy-D-glucityl)-Glutaryl}-DW[Trp(5-Cl)][Hyp]E[dL]C[Thp]LIC[X1][dE](NH(1-deoxy-D-glucityl))K(DOTA)-NH2; linker 7-11 via Pyridine(2,6-diCH2)), the IC50 in assay [1] was < 10 nM. In addition, in assay [2], the “t1/2 Category” value is recorded as “A (t1/2 values>15 min)” and the Kd was < 1 nM. `CC[C@H](C)[C@@H]1NC(=O)[C@H](CC(C)C)NC(=O)C2(CCN(C(=O)CN3CCN(CC(=O)O)CCN(CC(=O)O)CCN(CC(=O)O)CC3)CC2)NC(=O)[C@@H](NC(=O)[C@@H](CC(C)C)NC(=O)[C@H](CCC(=O)O)NC(=O)[C@@H]2C[C@@H](NC(=O)CCCC(=O)NC[C@H](O)[C@@H](O)[C@H](O)[C@H](O)CO)CN2C(=O)[C@H](Cc2c[nH]c3ccc(Cl)cc23)NC(=O)[C@H](Cc2c[nH]c3ccccc23)NC(=O)[C@H](CC(=O)O)NC(=O)CN2CCC(NC(=O)CCCC(=O)NC[C@H](O)[C@@H](O)[C@H](O)[C@H](O)CO)CC2)CSCc2cccc(n2)CSC[C@@H](C(=O)NC2CCN(CC(=O)N[C@H](CCC(=O)NC[C@H](O)[C@@H](O)[C@H](O)[C@H](O)CO)C(N)=O)CC2)NC1=O` [GIP-006, AGLU-Glutar-APAc-Asp-Trp-5Clw-Tap(AGLU-Glutar)-Glu-leu-[Cys(2Lut)-Apc(DOTA)-Leu-Ile-Cys]-APAc-glu(AGLU)-NH2] ({NH(1-deoxy-D-glucityl)-Glutaryl}-[X1]DW[Trp(5-Cl)][Pro(trans-4-NH2)]([Glutaryl-NH(1-deoxy-D-glucityl)])E[dL]C[Api](DOTA)LIC[X1][dE](NH(1-deoxy-D-glucityl))-NH2; linker 8-12 via Pyridine(2,6-diCH2)): in assay [1], the IC50 is < 10 nM. Besides, in assay [2], the “t1/2 Category” value is reported as “A (t1/2 values>15 min)” and the Kd is < 1 nM.

B1: DOTA-Ttds-Asp-Trp-5Clw-Pro-Glu-leu-[Cys(3MeBn)-Aib-Hle-Ile-AET] (peptide)
peptide: {DOTA-Ttds}-DW[Trp(5-Cl)]PE[dL]C[Aib][hLeu]I[Cysteamide]
modifications: linker (positions not given here) via mXylylene; not fully specified (bridges); printed as DOTA-Ttds-Asp-Trp-5Clw-Pro-Glu-leu-[Cys(3MeBn)-Aib-Hle-Ile-AET]
For B1, the pIC50 in assay [3] was > 8 pic50.

B2: DOTA-Ttds-Asp-Trp-5Clw-Pro-Glu-leu-[Cys(3Lut)-Aib-Leu-Ile-AET] (peptide)
peptide: {DOTA-Ttds}-DW[Trp(5-Cl)]PE[dL]C[Aib]LI[Cysteamide]
modifications: linker (positions not given here) via 3Lut; not fully specified (bridges); printed as DOTA-Ttds-Asp-Trp-5Clw-Pro-Glu-leu-[Cys(3Lut)-Aib-Leu-Ile-AET]
Take B2: the pIC50 in assay [3] is > 8 pic50.

B3: DOTA-Ttds-Asp-Trp-5Clw-Pro-Glu-leu-[Dap(3MeBn)-Aib-Leu-Ile-AET] (peptide)
peptide: {DOTA-Ttds}-DW[Trp(5-Cl)]PE[dL][Dap][Aib]LI[Cysteamide]
modifications: linker (positions not given here) via mXylylene; not fully specified (bridges); printed as DOTA-Ttds-Asp-Trp-5Clw-Pro-Glu-leu-[Dap(3MeBn)-Aib-Leu-Ile-AET]
As for B3, the pIC50 in assay [3] is > 8 pic50.

B4: DOTA-Ttds-Asp-Trp-5Clw-Pro-Glu-leu-[Dap(3MeBn)-Aib-Leu-Ile-AETO] (peptide)
peptide: {DOTA-Ttds}-DW[Trp(5-Cl)]PE[dL][Dap][Aib]LI[AETO]
modifications: linker (positions not given here) via mXylylene; not fully specified (bridges)
As to B4, the pIC50 in assay [3] was > 8 pic50.

B5: DOTA-Ttds-Asp-Trp-5Clw-Pro-Glu-leu-[Cys(2Lut)-Aib-Leu-Ile-AET] (peptide)
peptide: {DOTA-Ttds}-DW[Trp(5-Cl)]PE[dL]C[Aib]LI[Cysteamide]
modifications: linker (positions not given here) via 2Lut(3); not fully specified (bridges); printed as DOTA-Ttds-Asp-Trp-5Clw-Pro-Glu-leu-[Cys(2Lut)-Aib-Leu-Ile-AET]
Consider B5, for which the pIC50 in assay [3] is > 8 pic50.

B6: DOTA-Ttds-Asp-Trp-5Clw-Pro-Glu-leu-[Cys(3MeBn)-Thp-Leu-Ile-AET] (peptide)
peptide: {DOTA-Ttds}-DW[Trp(5-Cl)]PE[dL]C[Thp]LI[Cysteamide]
modifications: linker (positions not given here) via mXylylene; not fully specified (bridges); printed as DOTA-Ttds-Asp-Trp-5Clw-Pro-Glu-leu-[Cys(3MeBn)-Thp-Leu-Ile-AET]
As to B6, the pIC50 in assay [3] was > 8 pic50.

B7: DOTA-Ttds-Asp-Trp-5Clw-Hyp-Glu-leu-[Cys(3MeBn)-Aib-Leu-Ile-AET] (peptide)
peptide: {DOTA-Ttds}-DW[Trp(5-Cl)][Hyp]E[dL]C[Aib]LI[Cysteamide]
modifications: linker (positions not given here) via mXylylene; not fully specified (bridges); printed as DOTA-Ttds-Asp-Trp-5Clw-Hyp-Glu-leu-[Cys(3MeBn)-Aib-Leu-Ile-AET]
For B7, in assay [3], the pIC50 is > 8 pic50.

B8: DOTA-APAc-Asp-Trp-5Clw-Pro-Glu-leu-[Cys(3MeBn)-Aib-Leu-Ile-AET] (peptide)
peptide: {DOTA-APAc″}-DW[Trp(5-Cl)]PE[dL]C[Aib]LI[Cysteamide]
modifications: linker 7-11 via mXylylene
Regarding B8, the pIC50 in assay [3] is > 8 pic50.

B9: DOTA-Ttds-Asp-Trp-5Clw-Pro-Glu-leu-[Cys(3MeBn)-Apc-Leu-Ile-AET] (peptide)
peptide: {DOTA-Ttds}-DW[Trp(5-Cl)]PE[dL]C[Api]LI[Cysteamide]
modifications: linker (positions not given here) via mXylylene; not fully specified (bridges); printed as DOTA-Ttds-Asp-Trp-5Clw-Pro-Glu-leu-[Cys(3MeBn)-Apc-Leu-Ile-AET]
Consider B9, for which the pIC50 in assay [3] was > 8 pic50.

B10: DOTA-Ttds-Asp-Trp-5Clw-Pro-Glu-leu-[Cys(3MeBn)-Aib-Leu-Ile-en] (peptide)
peptide: DWXPEXCXLI
modifications: N-term DOTA-Ttds; 5Clw; leu (D-Leu); cycle [Cys(3MeBn)..en]; Aib
On to B10, for which, in assay [3], the pIC50 was > 8 pic50.
